Biological target: T1, mouse plasma-derived SA (mouse SA, Sigma-Aldrich) (mouse, UniProt P07724 25-608)
T1 construct: The SA in the SPR assay was bought (Sigma-Aldrich, plasma-derived, without IL-4); It is not tied to the bought lot by name; also called mouse serum albumin; MSA
Test: SPR (Biacore X100): murine FcRn immobilised by amine coupling on a C1 chip, mouse SA flowed at 4000 to 250 nM in pH 5.8 running buffer; Langmuir fit
Procedure: Murine FcRn recombinant protein (Acro Biosystems) was immobilized via amine coupling on a C1 chip (GE Healthcare) for ˜200 resonance units (RU) according to the manufacturer's instructions. SA-IL4 or SA (mouse SA, Sigma-Aldrich) was flowed at decreasing concentrations in the running buffer (0.01 M monobasic anhydrous sodium phosphate, pH 5.8, 0.15 M NaCl) at 30 μl/min. The sensor chip was regenerated with PBS, pH 7.4 for every cycle. Specific bindings of SA fusion proteins to FcRn were calculated by comparison to a non-functionalized channel used as a reference. Experimental results were fitted with Langmuir binding kinetics using BIAevaluation software (GE Healthcare).

B1: Murine FcRn recombinant protein (Acro Biosystems) (receptor, mouse)
chain 1: SETRPPLMYHLTAVSNPSTGLPSFWATGWLGPQQYLTYNSLRQEADPCGAWMWENQVSWYWEKETTDLKSKEQLFLEALKTLEKILNGTYTLQGLLGCELASDNSSVPTAVFALNGEEFMKFNPRIGNWTGEWPETEIVANLWMKQPDAARKESEFLLNSCPERLLGHLERGRRNLEWKEPPSMRLKARPGNSGSSVLTCAAFSFYPPELKFRFLRNGLASGSGNCSTGPNGDGSFHAWSLLEVKRGDEHHYQCQVEHEGLAQPLTVDLDSSARSS
chain 2: IQKTPQIQVYSRHPPENGKPNILNCYVTQFHPPHIEIQMLKNGKKIPKVEMSDMSFSKDWSFYILAHTEFTPTETDTYACRVKHASMAEPKTVYWDRDM
notes: Bought from Acro Biosystems and immobilised by amine coupling on a C1 chip; also called Recombinant mouse FcRn; neonatal Fc receptor
Kd: 294 nM | koff: 0.0011 s⁻¹ | kon: 3700 M⁻¹ s⁻¹
